For the assay, the target named is T1, bovine LPL (bovine, UniProt P11151 29-478).
T1 sequence (looked up): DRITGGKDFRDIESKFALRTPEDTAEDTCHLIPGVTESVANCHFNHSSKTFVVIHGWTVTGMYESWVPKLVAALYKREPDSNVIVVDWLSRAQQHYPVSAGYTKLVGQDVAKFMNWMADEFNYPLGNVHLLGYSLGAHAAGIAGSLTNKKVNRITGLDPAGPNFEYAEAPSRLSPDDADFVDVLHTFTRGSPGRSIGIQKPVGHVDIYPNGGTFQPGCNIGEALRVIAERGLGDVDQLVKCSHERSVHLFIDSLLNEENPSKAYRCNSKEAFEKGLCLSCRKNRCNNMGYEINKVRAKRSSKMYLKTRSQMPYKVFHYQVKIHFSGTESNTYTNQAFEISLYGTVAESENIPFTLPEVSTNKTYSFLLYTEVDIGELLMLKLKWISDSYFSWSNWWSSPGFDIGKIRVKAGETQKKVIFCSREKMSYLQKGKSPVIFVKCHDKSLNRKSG
The experiment in a line: cell-based or functional assay.

Regarding “cynomolgus monkey ANGPTL4 N-terminal region (amino acid residues 26-148) with an N-terminal hexa-histidine tag (from UniProt Q9BY76 26-148) (ligand)”, the EC50 (nM) of the ANGPTL4 protein in the LPL assay came to 3.89 nM.

For the origin of these results see patent publication US20130266574A1 (Regeneron, published 2013).
